Assay results from US20050282743A1, “Molecular interactions in cells” (Arbor Vita Corporation, priority 2001, published 2005).
Read-outs that look alike come from different tables or passages of the source.

Legend:
Experiment in all cases: G' assay
[1] = target: T1, GST-Shank 3 PDZ domain 1 (human (hypothetical, computer cloned)), Q9BYB0
T1 chain: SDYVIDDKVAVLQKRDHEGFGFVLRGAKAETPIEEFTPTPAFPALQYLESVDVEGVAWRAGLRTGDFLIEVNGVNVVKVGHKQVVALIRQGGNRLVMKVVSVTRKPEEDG

[2] = target: GST-BAI-1 Associated Protein PDZ domain 5 (Homo sapiens (Human)), Q96QZ7
[3] = target: T2, GST-ZO-3 PDZ domain 2 (Homo sapiens (Human)), O95049
T2 chain: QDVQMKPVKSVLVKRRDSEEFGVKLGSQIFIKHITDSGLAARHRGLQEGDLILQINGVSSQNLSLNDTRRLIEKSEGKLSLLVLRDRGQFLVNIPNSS

[4] = target: GST-CARD14 PDZ domain 1 (Homo sapiens (Human)), Q9BXL6
[5] = target: T3, GST-MUPP1 PDZ domain 13 (Homo sapiens (Human)), O75970
T3 chain: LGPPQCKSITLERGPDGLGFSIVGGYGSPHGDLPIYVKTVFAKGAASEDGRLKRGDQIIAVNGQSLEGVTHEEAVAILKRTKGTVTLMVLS

[6] = target: T4, GST-X-11 beta PDZ domain 1 (Rattus norvegicus (Rat)), O35431
T4 chain: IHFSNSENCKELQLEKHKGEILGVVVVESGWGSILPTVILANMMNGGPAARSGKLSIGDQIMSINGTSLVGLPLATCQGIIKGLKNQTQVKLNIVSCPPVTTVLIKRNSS

[7] = target: T5, GST-KIAA0340 PDZ domain 1 (Homo sapiens (Human)), Q86UR5
T5 chain: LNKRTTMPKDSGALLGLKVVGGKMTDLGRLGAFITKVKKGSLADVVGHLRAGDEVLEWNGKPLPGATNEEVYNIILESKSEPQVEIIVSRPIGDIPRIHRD

[8] = target: GST-Unnamed Protein PDZ domain 2 [GST: P08515]
[9] = target: T6, GST-X-11 beta PDZ domain 2 (Rattus norvegicus (Rat)), O35431
T6 chain: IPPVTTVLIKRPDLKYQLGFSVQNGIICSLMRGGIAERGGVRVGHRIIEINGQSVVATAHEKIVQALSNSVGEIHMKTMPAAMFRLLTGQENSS

[10] = target: T7, GST-NeDLG PDZ domain 1 (Mus musculus (Mouse)), P70175
T7 chain: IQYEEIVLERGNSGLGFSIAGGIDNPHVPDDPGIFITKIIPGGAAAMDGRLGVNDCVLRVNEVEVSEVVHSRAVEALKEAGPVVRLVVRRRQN

[11] = target: GST-KIAA1222 PDZ domain 1 (Rattus norvegicus (Rat)), O35867
[12] = target: GST-PIST PDZ domain 1 (Mus musculus (Mouse)), Q8BH60
[13] = target: T8, GST-GRIP 1 PDZ domain 3 (Homo sapiens (Human)), Q9Y3R0
T8 chain: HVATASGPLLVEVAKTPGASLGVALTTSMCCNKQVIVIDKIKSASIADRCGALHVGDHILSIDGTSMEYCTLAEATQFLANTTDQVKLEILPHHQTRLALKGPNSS

[14] = target: T9, GST-MUPP1 PDZ domain 3 (Homo sapiens (Human)), O75970
T9 chain: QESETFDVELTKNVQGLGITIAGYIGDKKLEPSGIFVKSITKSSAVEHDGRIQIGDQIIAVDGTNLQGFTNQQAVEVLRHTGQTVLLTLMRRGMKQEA

[15] = target: GST-KIAA0316 PDZ domain 1 (Homo sapiens (Human)), Q14CM0
[16] = target: T10, GST-PTN-4 PDZ domain 1 (Homo sapiens (Human)), P29074
T10 chain: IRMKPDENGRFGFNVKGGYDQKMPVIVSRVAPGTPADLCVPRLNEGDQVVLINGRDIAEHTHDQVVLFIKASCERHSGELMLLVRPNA

[17] = target: T11, GST-Syntrophin 1 alpha PDZ domain 1 (Homo sapiens (Human)), Q13424
T11 chain: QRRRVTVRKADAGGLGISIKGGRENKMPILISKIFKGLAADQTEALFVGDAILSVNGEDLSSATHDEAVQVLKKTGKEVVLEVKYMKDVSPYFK

[18] = target: T12, GST-FLJ11215 PDZ domain 1 (Mus musculus (Mouse)), O88952
T12 chain: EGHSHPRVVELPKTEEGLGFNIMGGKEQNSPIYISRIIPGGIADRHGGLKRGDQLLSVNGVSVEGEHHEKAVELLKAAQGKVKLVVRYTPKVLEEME

[19] = target: T13, GST-KIAA0380 PDZ domain 1 (Homo sapiens (Human)), O15085
T13 chain: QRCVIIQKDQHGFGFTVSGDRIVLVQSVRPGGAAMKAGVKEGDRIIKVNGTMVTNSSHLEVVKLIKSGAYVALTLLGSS

[20] = target: T14, GST-KIAA0147 PDZ domain 2 (Homo sapiens (Human)), Q14160
T14 chain: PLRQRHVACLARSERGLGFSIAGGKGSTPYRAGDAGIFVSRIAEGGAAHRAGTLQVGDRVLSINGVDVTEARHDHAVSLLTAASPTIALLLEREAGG
Further: key of the grades not given here.

Chain of GST-BAI-1 Associated Protein PDZ domain 5 (Homo sapiens (Human)), Q96QZ7 (Q96QZ7 988-1099): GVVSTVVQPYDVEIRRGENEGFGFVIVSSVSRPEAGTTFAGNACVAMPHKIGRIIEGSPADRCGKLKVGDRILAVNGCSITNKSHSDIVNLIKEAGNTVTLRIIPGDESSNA
Chain of GST-KIAA0316 PDZ domain 1 (Homo sapiens (Human)), Q14CM0 (Q14CM0 72-159): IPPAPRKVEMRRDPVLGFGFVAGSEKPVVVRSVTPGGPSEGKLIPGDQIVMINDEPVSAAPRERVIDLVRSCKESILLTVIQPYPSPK
Chain of GST-CARD14 PDZ domain 1 (Homo sapiens (Human)), Q9BXL6 (Q9BXL6 565-664): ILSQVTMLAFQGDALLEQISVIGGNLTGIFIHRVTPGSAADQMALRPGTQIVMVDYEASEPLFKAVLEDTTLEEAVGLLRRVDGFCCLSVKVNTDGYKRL
Chain of GST-Unnamed Protein PDZ domain 2 [GST: P08515] (P08515 whole entry, the tested form may be a part): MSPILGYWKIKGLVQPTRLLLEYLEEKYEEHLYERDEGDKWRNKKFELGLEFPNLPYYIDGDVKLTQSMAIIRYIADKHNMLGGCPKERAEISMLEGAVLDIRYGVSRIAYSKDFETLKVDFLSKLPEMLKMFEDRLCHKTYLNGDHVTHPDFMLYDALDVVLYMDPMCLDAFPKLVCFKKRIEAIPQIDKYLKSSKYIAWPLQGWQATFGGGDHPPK
Chain of GST-KIAA1222 PDZ domain 1 (Rattus norvegicus (Rat)), O35867 (O35867 499-598, tags or fused parts left off): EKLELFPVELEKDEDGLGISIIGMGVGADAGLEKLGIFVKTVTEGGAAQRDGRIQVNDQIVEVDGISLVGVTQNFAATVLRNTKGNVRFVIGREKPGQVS

Binder: PIPAGGCTFSGIFPTLTSPL (modifications not checked) [KIA 1481]
- Classification [1]: 3 A450 class
- Classification [2]: 3 A450 class

Binder: HDFRRAFKKILARGDRKRIV (modifications not checked) [alpha-2A Adrenergic receptor]
- Classification [3]: 3 A450 class
- Classification [4]: 1 A450 class
- Classification [5]: 1 A450 class
- Classification [6]: 2 A450 class
- Classification [7]: 1 A450 class
- Classification [8]: 1 A450 class
- Classification [9]: 1 A450 class

Binder: VGTLLLERVIFPSVKIATLV (modifications not checked) [AdenoE4 typ9]
- Classification [10]: 1 A450 class
- Classification [11]: 1 A450 class
- Classification [12]: 1 A450 class

Binder: ILNSIQVMRAQMNQIQSVEV (modifications not checked) [ephrin B2]
- Classification [13]: 1 A450 class
- Classification [14]: 1 A450 class
- Classification [3]: 2 A450 class
- Classification [4]: 1 A450 class
- Classification [6]: 2 A450 class
- Classification [7]: 2 A450 class
- Classification [9]: 1 A450 class

Binder: AWDDSARAAGGQGLHVTAL (modifications not checked) [LPAP]
- Classification [13]: 1 A450 class
- Classification [12]: 1 A450 class
- Classification [1]: 3 A450 class
- Classification ([15]; remark: other sources report otherwise): 1 A450 class
- Classification [8]: 3 A450 class

Binder: TQGFPGPATWRRISSLESEV (modifications not checked) [NMDA Glutamate Receptor 2C (cysteine-free)]
- Classification [10]: 2 A450 class
- Classification [16]: 2 A450 class
- Classification [17]: 4 A450 class
- Classification [18]: 1 A450 class
- Classification [5]: 5 A450 class
- Classification [19]: 1 A450 class
- Classification [20]: 1 A450 class
- Classification [2]: 4 A450 class

Binder: VPGALDYAAFSSALYGESDL (modifications not checked) [a-actinin 2]
- Classification [17]: 3 A450 class
- Classification [19]: 1 A450 class
- Classification [15]: 1 A450 class

Binder: ELLQFCRTPNPALKNGQYWV (modifications not checked) [CSPG4 (chondroitin sulfae proteoglycan 4, melanoma-associated)]
- Classification [9]: 2 A450 class

Binder: QISPGGLEPPSEKHFRETEV (modifications not checked) [TAX]
- Classification [16]: 2 A450 class
- Classification [18]: 1 A450 class
- Classification [5]: 5 A450 class
- Classification [20]: 5 A450 class
- Classification [2]: 5 A450 class

Binder: KTMPAAMYRLLTAQEQPVYI (modifications not checked) [MINT-1]
- Classification [11]: 1 A450 class
- Classification [14]: 3 A450 class

Binder: PYSELNYETSHYPASPDSWV (modifications not checked) [catenin - delta 2]
- Classification [20]: 3 A450 class
